Test results taken from PMC5098211.

How the values were obtained:
[1] = molecular target: human NaV1.5 voltage-gated sodium channel (human) (UniProt Q14524)
[2] = molecular target: human NaV1.5 voltage-gated sodium channel (human) (UniProt Q14524); remark: listed apart in the source

Sequence of UniProt Q14524 (Q14524 whole entry): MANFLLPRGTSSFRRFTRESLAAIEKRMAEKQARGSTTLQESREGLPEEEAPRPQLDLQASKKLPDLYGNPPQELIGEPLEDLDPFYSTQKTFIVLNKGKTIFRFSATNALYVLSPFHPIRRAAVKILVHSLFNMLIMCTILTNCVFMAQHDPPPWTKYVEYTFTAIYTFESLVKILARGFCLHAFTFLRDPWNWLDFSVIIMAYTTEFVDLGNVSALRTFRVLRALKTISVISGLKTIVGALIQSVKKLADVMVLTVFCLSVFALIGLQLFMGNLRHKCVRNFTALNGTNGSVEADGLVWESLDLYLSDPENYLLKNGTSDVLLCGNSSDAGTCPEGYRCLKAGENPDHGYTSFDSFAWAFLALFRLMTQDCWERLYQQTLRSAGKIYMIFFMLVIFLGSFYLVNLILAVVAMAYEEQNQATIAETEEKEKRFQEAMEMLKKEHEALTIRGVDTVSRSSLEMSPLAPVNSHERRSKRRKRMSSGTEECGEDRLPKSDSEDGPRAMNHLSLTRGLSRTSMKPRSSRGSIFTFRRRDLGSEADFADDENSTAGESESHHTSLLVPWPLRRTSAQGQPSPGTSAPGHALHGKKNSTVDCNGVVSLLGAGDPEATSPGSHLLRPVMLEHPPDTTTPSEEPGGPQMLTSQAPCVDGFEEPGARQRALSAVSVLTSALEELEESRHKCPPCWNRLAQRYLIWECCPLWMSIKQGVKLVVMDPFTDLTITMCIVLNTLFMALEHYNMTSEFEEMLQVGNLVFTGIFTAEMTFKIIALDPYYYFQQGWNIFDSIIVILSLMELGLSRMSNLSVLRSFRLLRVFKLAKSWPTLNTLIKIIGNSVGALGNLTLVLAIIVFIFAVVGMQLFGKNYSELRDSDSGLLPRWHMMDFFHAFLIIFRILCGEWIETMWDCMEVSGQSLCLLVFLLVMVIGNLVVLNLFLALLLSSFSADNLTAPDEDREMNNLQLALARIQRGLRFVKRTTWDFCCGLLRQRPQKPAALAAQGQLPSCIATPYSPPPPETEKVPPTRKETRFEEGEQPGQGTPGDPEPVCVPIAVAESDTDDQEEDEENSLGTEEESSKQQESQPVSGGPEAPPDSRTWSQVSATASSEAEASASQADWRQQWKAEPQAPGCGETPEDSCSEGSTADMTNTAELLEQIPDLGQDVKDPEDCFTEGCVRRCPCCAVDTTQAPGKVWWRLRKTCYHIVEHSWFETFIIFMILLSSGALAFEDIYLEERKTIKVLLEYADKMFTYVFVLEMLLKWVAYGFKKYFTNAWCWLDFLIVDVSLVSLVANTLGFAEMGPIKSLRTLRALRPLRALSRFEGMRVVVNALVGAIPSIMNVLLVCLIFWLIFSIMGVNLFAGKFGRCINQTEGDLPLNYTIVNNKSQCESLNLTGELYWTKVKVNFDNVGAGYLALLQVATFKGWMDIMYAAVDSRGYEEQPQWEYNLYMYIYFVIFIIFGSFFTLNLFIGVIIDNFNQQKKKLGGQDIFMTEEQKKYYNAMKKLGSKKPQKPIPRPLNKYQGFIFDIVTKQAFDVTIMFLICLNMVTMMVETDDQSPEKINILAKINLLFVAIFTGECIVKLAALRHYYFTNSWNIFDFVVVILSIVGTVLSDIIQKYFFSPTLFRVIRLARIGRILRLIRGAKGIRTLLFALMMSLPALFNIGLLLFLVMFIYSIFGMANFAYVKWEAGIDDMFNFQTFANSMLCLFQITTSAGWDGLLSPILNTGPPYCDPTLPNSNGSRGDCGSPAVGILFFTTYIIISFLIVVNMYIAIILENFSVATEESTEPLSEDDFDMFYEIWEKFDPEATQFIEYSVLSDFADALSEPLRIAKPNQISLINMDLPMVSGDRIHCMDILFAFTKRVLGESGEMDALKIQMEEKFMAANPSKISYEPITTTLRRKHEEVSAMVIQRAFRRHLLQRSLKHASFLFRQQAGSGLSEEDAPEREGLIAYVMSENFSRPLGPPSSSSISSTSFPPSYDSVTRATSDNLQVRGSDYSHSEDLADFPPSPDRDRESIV

FS50, salivary protein from the flea Xenopsylla cheopis (from UniProt A2IAD2 20-96) (natural protein)
IC50 of inhibition of NaV1.5 currents, whole-cell patch clamp on HEK 293T cells, FS50 from 0.1 nM to 100 μM [1]: 1.58 µM | reduction of the control peak amplitude of the NaV1.5 current at 10 μM FS50, whole-cell patch clamp on HEK 293T cells (at 30 μM the remaining inward current was eliminated completely) [1]: 82.5% | time constant of inhibition of NaV1.5 currents at 5 μM FS50, whole-cell patch clamp on HEK 293T cells [2]: 15 s
